{
  "source": "the RNAGym collection of RNA variant scans (doi:10.1073/pnas.2313332121)",
  "parents": {"B1": {"name": "TPR t1 (parent)", "chain": "GACCAAUCUGCCCUCAGAGCUCGAGAACAUCUUCGGAUGCAGAGGAGGCAGGCUUCGGUGGCGCGAUAGCGCCAACGUCCUCAACCUCCAAUGCAUCCCACCACAUGAUGAUGCCUGAAGAGCCUUGGUUUUUUG"}},
  "data": [
    {"variants_of": "B1", "experiment": "polymerase ribozyme fitness, log enrichment relative to wild type (log ratio); higher = more active; in vitro selection for triplet polymerase activity", "summary_of_the_method": "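Fitness compares each genotype's enrichment to that of the wild type on a logarithmic scale, averaging replicates with inverse-variance weights. The logarithm is base 2. Enrichment came from Illumina sequencing of input and output libraries after one triplicate round of in vitro selection, which included frozen incubation at −7 °C, of PCR-built, transcribed mutant libraries of each subunit of a heterodimeric triplet polymerase ribozyme. Only genotypes with ≥10 input reads and ≥1 read per output were kept.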", "values": [
      {"variant": "GACCAAUCUGCCCUCAGAGCUCGAGAACAUCUUCGGAUGCAGAGGAGGCAGGCUUCGUUGGCACGAUAGCGCCAACGUCCUAAACCUCCAAUGCAUUCCACCACAUGAUAAUGCCUGAAGAGCCUUGGUUUUUUG", "note": "[G58U G63A C82A C97U G110A]", "polymerase ribozyme fitness (log ratio)": -4.64},
      {"variant": "GACCAAUCUGCCCUCAGAGCUCGAGAACAUCUUCGGAUGCAGAGGAGGCAGGCUUCGGAGGCGCGAUAGCGCCAACUUCCUCAACCUCCAAUGCAUCCCACCACAUGAUGAUGCCUGAAGAGCCUUGGUGUUUUG", "note": "[U59A G77U U130G]", "polymerase ribozyme fitness (log ratio)": -1.24},
      {"variant": "GACCAAUCUGCCCUCAGAGCUCGAGAACAUCUUCGGAUGCAGAGGAGGCAGGCUUCGGAGGCGCGAUAGCGCCAACGUCCUCAACCUCCAAUGCAUCCCAUCACAUGAUGAUGCCUGAAGAGCAUUGGUUUUUUG", "note": "[U59A C101U C124A]", "polymerase ribozyme fitness (log ratio)": 1.59},
      {"variant": "GACCAAUCUGCCCUCAGAGCUCGAGAACAUCUUCGGAUGCAGAGGAGGCAGGCUUCGUUGGCGCGAUAGCGCCAACGUCCUCAACCUCCAAUGCAUCCCACCACAUGAUGAUGUCUGAAGAGCCUUGGUUUUUUG", "note": "[G58U C114U]", "polymerase ribozyme fitness (log ratio)": -2.25},
      {"variant": "GACCAAUCUGCCCUCAGAGCUCGAGAACAUCUUCGGAUGCAGAGGAGGCAGGCUUCGCUGGCGCGAUAGCGCUAACGUCCUCAACGUCCAAUGCAUCCCACCACAUGAUGAUGCCUGAAGAGCCUUGGUUUUUUG", "note": "[G58C C73U C86G]", "polymerase ribozyme fitness (log ratio)": -0.297},
      {"variant": "GACCAAUCUGCCCUCAGAGCUCGAGAACAUCUUCGGAUGCAGAGGAGGCAGGCUUCGUUGGCGCGAUAGCGCCAACGUCCUCAACCUCCAAUGCAUCUCACCACAUGAUGAUGCCUGAAGAGCCAUGGUUUUUUG", "note": "[G58U C98U U125A]", "polymerase ribozyme fitness (log ratio)": -1.35},
      {"variant": "GACCAAUCUGCCCUCAGAGCUCGAGAACAUCUUCGGAUGCAGAGGAGGCAGGCUUCGGCGGCGCGAUAGCGCCAACGUCCUCACCCUCCAAUGCAUCCCACCACAUGAUGAUGCCUGAAGAGCCUUGGUUUUUUG", "note": "[U59C A84C]", "polymerase ribozyme fitness (log ratio)": -0.231},
      {"variant": "GACCAAUCUGCCCUCAGAGCUCGAGAACAUCUUCGGAUGCAGAGGAGGCAGGCUUCGGAGGAGCGAUAGCGCCAACGUCCUCAACCUCCAAUGCAUCCCCCCACAAGAUGAUGCCUGAAGAGCGUUGGUUUUUUG", "note": "[U59A C62A A100C U106A C124G]", "polymerase ribozyme fitness (log ratio)": -0.96},
      {"variant": "GACCAAUCUGCCCUCAGAGCUCGAGAACAUCUUCGGAUGCAGAGGAGGCAGGCUUCGGAGGCGCGAUAGCGCCAACGUCCUCAACCUCCAAUGCAUCCCACUCCAUGAUGAUGCCUGAAGAGCCUUGGUUUUUUG", "note": "[U59A C102U A103C]", "polymerase ribozyme fitness (log ratio)": -5.53},
      {"variant": "GACCAAUCUGCCCUCAGAGCUCGAGAACAUCUUCGGAUGCAGAGGAGGCAGGCUUCGGAGUCGCGAUAGCGCCAACGUCCUCAACCUCCAAUGCAUCCCACCACAUGAUGAUGCCUGAAGAGCCUUGGUUUUUUG", "note": "[U59A G61U]", "polymerase ribozyme fitness (log ratio)": -0.465},
      {"variant": "GACCAAUCUGCCCUCAGAGCUCGAGAACAUCUUCGGAUGCAGAGGAGGCAGGCUUCGGCGGCGUGAUAGCGCCAACGUCCACAACCUCCAAUGCAUCCCACCACAUGAUGAUGCCUGAAGAGCCUUGGUUUUUUG", "note": "[U59C C64U U81A]", "polymerase ribozyme fitness (log ratio)": -1.8},
      {"variant": "GACCAAUCUGCCCUCAGAGCUCGAGAACAUCUUCGGAUGCAGAGGAGGCAGGCUUCGCUGGCGCGAUAGCGCCAACGUCCUCAACCUCCAAUGCAUCCCACCACAUGAUGAUGCCUGUAGAGCCUUCGUUUUUUG", "note": "[G58C A118U G127C]", "polymerase ribozyme fitness (log ratio)": -1.14},
      {"variant": "GACCAAUCUGCCCUCAGAGCUCGAGAACAUCUUCGGAUGCAGAGGAGGCAGGCUUCGGAGGCGCGAUAGUGCCAACGUCCUCAACCUCCAAUGCAUCCCACAACUUGAUGGUGCCUGAAGAGCCUUGAAUUUUUG", "note": "[U59A C70U C102A A105U A111G G128A U129A]", "polymerase ribozyme fitness (log ratio)": -5.83},
      {"variant": "GACCAAUCUGCCCUCAGAGCUCGAGAACAUCUUCGGAUGCAGAGGAGGCAGGCUUCGGAGGCGCGAUAGCGCCAACUUCCUCAACCUCCAAUGCAUCCCACCACAUGAUGAUGCCUGAAGAGCCUUGGUUUUUUG", "note": "[U59A G77U]", "polymerase ribozyme fitness (log ratio)": -2.02},
      {"variant": "GACCAAUCUGCCCUCAGAGCUCGAGAACAUCUUCGGAUGCAGAGGAGGCAGGCUUCGGCGGCGCGGUAGCGCCAACGUCCUCAACCUCCAAUGCAUCCCACCACAUGAUGAUGCCUGAAGAGCCUUGGUUUUUUG", "note": "[U59C A66G]", "polymerase ribozyme fitness (log ratio)": -1.47},
      {"variant": "GACCAAUCUGCCCUCAGAGCUCGAGAACAUCUUCGGAUGCAGAGGAGGCAGGCUUCGGCGGCGCGUUAGCGCCAACGUCCUCAACCUCCAAUGCAUCCCACCACAUGAUGAUGCCUGAAGAGCCUUGGUUUUUUG", "note": "[U59C A66U]", "polymerase ribozyme fitness (log ratio)": -1.57},
      {"variant": "GACCAAUCUGCCCUCAGAGCUCGAGAACAUCUUCGGAUGCAGAGGAGGCAGGCUUCGCUGGCGCGAUAGCGCCAACGUCCUCAACCUCCAAUGCAUCCCACCACAUGAUGAUGCCUGGACAGCCUUGGUUUUUUG", "note": "[G58C A118G G120C]", "polymerase ribozyme fitness (log ratio)": -0.431},
      {"variant": "GACCAAUCUGCCCUCAGAGCUCGAGAACAUCUUCGGAUGCAGAGGAGGCAGGCUUCGUUGGCGCGAUAGCACCAACAUCCUCAACCUCCAAUGCAUCCCACCACAUGAUGAUGCCUGAAGAGCCUUGGUUUUUUG", "note": "[G58U G71A G77A]", "polymerase ribozyme fitness (log ratio)": 0.0877},
      {"variant": "GACCAAUCUGCCCUCAGAGCUCGAGAACAUCUUCGGAUGCAGAGGAGGCAGGCUUCGCCGGCGCGAUAGCGCCAACGUCCUCCACCUCCAAUGCAUCCCACCACAAGAUGAUGCCUGAAGAGCCUUGGUUUUUUG", "note": "[G58C U59C A83C U106A]", "polymerase ribozyme fitness (log ratio)": -0.577},
      {"variant": "GACCAAUCUGCCCUCAGAGCUCGAGAACAUCUUCGGAUGCAGAGGAGGCAGGCUUCGCUCGCGCGAUAGCGCCAACGUCCUCAACCUCCAAUGCAUCCCACCACAUGAUGUUGCCUGAAGAGCCUUGGUUUUUUG", "note": "[G58C G60C A111U]", "polymerase ribozyme fitness (log ratio)": -3.12},
      {"variant": "GACCAAUCUGCCCUCAGAGCUCGAGAACAUCUUCGGAUGCAGAGGAGGCAGGCUUCGUUGGCGCGAUAGCACCAACGUACUCAACCUCCAAUGCAUCCCACCGCAUGAUGAUGCUUGAAGAGCCUUGGUUUUUUG", "note": "[G58U G71A C79A A103G C115U]", "polymerase ribozyme fitness (log ratio)": -7.13}
    ]}
  ]
}
